Data as given in patent US20250000944A1, “USE OF RECOMBINANT CALRETICULIN IN HAIR GROWTH, HAIR BREEDING, HAIR PROTECTION OR ANTI-HAIR LOSS AND RELATED PRODUCT” (BEIJING YITUBAIHUI BIOTECH CO., LTD, priority 2021, published 2025).
Entries after “also recorded” stand apart in the source; their conditions may differ.

Legend:
Assay type in all cases: in vivo, C57BL/6 male mice
[1] = system: mice with androgenic alopecia; test: Second experiment: testosterone hair loss model, hair growth, skin blackness, scanning electron microscopy and hair follicle count; settings: for hair growth on the back skin: 17th day, 0.15 mL/mouse once a day; for growth stage and quantity of back hair under dermoscope: end of experiment
Protocol: (§1) Experimental animals: C57BL/6 male mice, 6-7 weeks old, weighing (20±2) g, were provided by Beijing Vital River Laboratory Animal Technology Co. Ltd., with the animal license number of SCXK (Beijing) 2021-0006. They were kept in a 12 h light/12 h dark environment, with free access to food and water. The mice were divided into normal control group (normal group, NC), model group (Model), experimental group C (rh-CRT-2, with a concentration of 0.35 mg/ml) including an injection group and an external application group, experimental group D (rh-CRT-3, with a concentration of 0.21 mg/ml) including an injection group and external application group, and positive control-minoxidil group (Minoxidil). The proteins were stored in a −70° C. refrigerator and diluted with physiological saline when used. There were 6 mice in each group.
(§2) Modeling and drug administration: First, the hair loss model was established. One day before the modeling, the hair in the center of the back of the experimental animal was removed with a skin preparation knife, and the prepared skin area was depilated with a depilatory cream. After 24 hours of depilation, the normal control group was given 75% ethanol, and other groups were injected with testosterone solution (5 mg/mL) prepared with 75% ethanol, 0.01 mL/mouse. Two hours later, the injection groups of experimental group C and experimental group D were injected on the back, 0.15 mL/mouse, once a day, for 17 consecutive days; the external application groups of experimental group C and experimental group D were applied on the back, 0.15 mL/mouse, once a day, for 17 consecutive days. The normal control group and the model group were externally applied with physiological saline, once a day, 0.15 mL/mouse, for 17 consecutive days. During the drug administration process, except for the normal control group, all other groups were injected with the modeling agent (testosterone), and administrated with drugs after 2 hours. […] After the experiment, the mouse skin was pathologically sectioned as follows: The skin pathological tissue was fixed in 4% paraformaldehyde, trimmed, dehydrated and transparent, and then embedded. The slices were cut with a thickness of 6 μm using a paraffin slicer, and further dewaxed, stained, dehydrated, transparent and sealed. The hair follicles in different areas were observed under an optical microscope, and the number of hair follicles was statistically analyzed.
Scanning electron microscopy observation: At the end of the experiment, hair shafts were randomly plucked from the newly formed hair area on the back of each group of mice. Three mice were selected from each group. The plucked hair shafts were fixed and the changes of hair shafts and hair cuticles were observed by scanning electron microscopy.
(§3) Statistical analysis: All data were processed using SPSS 17.0 software. One-way ANOVA was used for comparisons among multiple groups. Data were expressed as mean±standard deviation (x±s). P<0.05 was considered statistically significant, and P>0.05 was not considered statistically significant.

[2] = system: androgenic alopecia model; test: First experiment: testosterone-induced androgenic alopecia model, hair observed by dermatoscope and scanning electron microscopy
Protocol: Experimental animals: C57BL/6 male mice, 6-7 weeks old, weighing (20±2) g, were provided by Beijing Vital River Laboratory Animal Technology Co. Ltd., with the animal license number of SCXK (Beijing) 2021-0006. They were kept in a 12 h light/12 h dark environment, with free access to food and water. The mice were divided into normal NC group (NC), model group (Model), positive control-minoxidil group (Minoxidil), positive control-finasteride group (Finasteride), experimental group A and experimental group B. The proteins were stored in a −70° C. refrigerator and diluted with physiological saline when used. Experimental group A used rh-CRT-1, with a concentration of 0.21 mg/ml. Experimental group B used rh-CRT-2, with a concentration of 0.21 mg/ml. There were 6 mice in each group.
The main reagents used are as follows: 4% paraformaldehyde (Beijing Solarbio Technology Co., Ltd., China), isoflurane (Rayward, China), testosterone (Shanghai Standard Biotechnology Co., Ltd., China), paraffin sectioner (Thermo, USA), small animal anesthesia machine (Rayward, China), and inverted microscope (Olympus, Japan).
Modeling and drug administration: First, the androgenic alopecia model was established. One day before the modeling, the hair in the central part of the back of the experimental animal was removed with a skin preparation knife, and the prepared area was depilated with a depilatory cream. After 24 hours of depilation, the modeling agent (testosterone, 5.0 mg/mL) was subcutaneously injected into the neck of the mice in groups except the NC group, with a total dose of 0.2 mL/mouse. The mice in the NC group were injected with an equal amount of normal saline. After modeling, the mice were administrated with drugs. The NC group was injected with normal saline once a day, 0.15 mL/mouse each time. The experimental group A, experimental group B and positive control group were injected with modeling agent (testosterone), and administrated with drugs after 2 hours, and the dose of modeling agent was 0.2 mL/mouse. The experimental group A and experimental group B were injected on the back once a day, 0.15 mL/mouse each time. The positive control minoxidil group was applied 5% minoxidil externally, 0.01 mL/mouse, once a day. The positive control finasteride group was applied finasteride at a concentration of 13 μg/mL, 0.2 mL/mouse, once a day.

[3] = system: testosterone, dihydrotestosterone, and estradiol; test: Second experiment: hormone content in serum and skin tissue by ELISA; settings: compared with the model group
Protocol: as §1, §2
Hormone content in serum and skin tissue: At the end of the experiment, blood was collected from the mice's orbits, kept at room temperature for 30 min, centrifuged at 5,000 r/min for 10 min, and the serum was removed. At the end of the experiment, skin tissue was collected and stored in a −80° C. refrigerator. During the experiment, the skin tissue was homogenized, and the changes in testosterone, dihydrotestosterone, and estradiol of the serum and skin tissue in each group were detected by enzyme-linked immunosorbent assay (ELISA).
as §3

[4] = external application group, compared with the model group

B1: CRT-2: fragment (1-349 aa) of recombinantly expressed CRT, amino acid sequence SEQ ID NO: 9 (protein)
chain: EPAVYFKEQFLDGDGWTSRWIESKHKSDFGKFVLSSGKFYGDEEKDKGLQTSQDARFYALSASFEPFSNKGQTLVVQFTVKHEQNIDCGGGYVKLFPNSLDQTDMHGDSEYNIMFGPDICGPGTKKVHVIFNYKGKNVLINKDIRCKDDEFTHLYTLIVRPDNTYEVKIDNSQVESGSLEDDWDFLPPKKIKDPDASKPEDWDERAKIDDPTDSKPEDWDKPEHIPDPDAKKPEDWDEEMDGEWEPPVIQNPEYKGEWKPRQIDNPDYKGTWIHPEIDNPEYSPDPSIYAYDNFGVLGLDLWQVKSGTIFDNFLITNDEAYAEEFGNETWGVTKAAEKQMKDKQDEEQR
With B1 the “hair growth on the back skin” value ([1]; external application group) was “promoted hair growth the most”, the “hair growth on the back skin” value ([1]; injection group) was “promoted hair growth” and the “blackness of the back skin (color tester)” value (shortened to “blackness of the back skin”) ([1]; Day 14, external application group, compared with the model group, P<0.05) was “significantly increased”. The “blackness of the back skin” value ([1]; Day 17, external application group, compared with the model group, P<0.01) was “significantly increased”, the “blackness of the back skin” value ([1]; Day 17, injection group, compared with the model group, P<0.01) was “significantly increased” and the “growth stage and quantity of back hair under dermoscope” value [1, 4] was “increased number and became thicker”. For the same molecule, the “growth stage and quantity of back hair under dermoscope” value ([1]; injection group, compared with the model group) was “less and fine”, the “hair cuticles under scanning electron microscopy” value [1, 4] was “dense” and the “hair shafts under scanning electron microscopy” value [1, 4] was “became significantly thicker”. For the same molecule, the “number of hair follicles (pathological section)” value ([1]; external application group, compared with the model group, P<0.01) was “most significant effect”, the “hair cuticles under scanning electron microscopy” value ([1]; injection group) was “dense” and the “hair shafts under scanning electron microscopy” value ([1]; injection group) was “thin”. The “number of hair follicles (pathological section)” value ([1]; injection group, compared with the model group, P<0.01) was “significantly promoted”, the “changes in hair observed by dermatoscope” value ([2]; 21 days, compared with the model group (frizzy hair), proteins 0.21 mg/ml injected on the back once a day, minoxidil 5% external, finasteride 13 μg/mL) was “smoother” and the “hair cuticles observed by scanning electron microscopy” value ([2]; 21 days, proteins 0.21 mg/ml injected on the back once a day, minoxidil 5% external, finasteride 13 μg/mL, listed as experimental group B) was “arranged neatly; also recorded: denser than those of group A”. For the same molecule, the “hair shafts (scanning electron microscopy, FIG. 18 vs FIG. 19)” value ([2]; first experiment, comparison of experimental groups B and A) was “thicker than those of experimental group A”, the serum dihydrotestosterone ([3]; injection group, P<0.01) was “decreased significantly” and the skin tissue dihydrotestosterone ([3]; injection group, P<0.01) was “decreased significantly”. For the same molecule, the “testosterone level in skin tissue” value ([3]; injection group, P<0.05) was “significantly decreased”, the “testosterone level in the serum” value ([3]; injection group, P<0.05) was “significantly decreased” and the serum dihydrotestosterone ([3]; topical (external application) group, P<0.05) was “decreased significantly”.
